# US20210002363A1 (PHANES THERAPEUTICS, published 2021)
# What was measured:
# [1] = target: T1, Recombinant extracellular domain of human FOLR1 (Novoprotein, Cat#: C784) (human, UniProt P15328 25-233, limits assumed); assay: ELISA on immobilized FOLR1 extracellular domain; O.D. 450 nm
# T1 construct: Bought reagent; also called recombinant FOLR1; immobilized FOLR1 extracellular domain
# [2] = target: T1, Recombinant extracellular domain of …; assay: as above; remark: listed apart in the source
# [3] = target: T2, FOLR1 on SK-OV-3 cells (ATCC HTB-77) (Homo sapiens (Human), UniProt P15328 25-234); assay: FACS on SK-OV-3 cells; Alexa Fluor 488 F(ab')2 goat anti-human IgG Fc; MFI
# T2 construct: Endogenous FOLR1 of the cell line; also called cells that are known to express FOLR1
# T2 sequence (P15328 25-234 limits assumed): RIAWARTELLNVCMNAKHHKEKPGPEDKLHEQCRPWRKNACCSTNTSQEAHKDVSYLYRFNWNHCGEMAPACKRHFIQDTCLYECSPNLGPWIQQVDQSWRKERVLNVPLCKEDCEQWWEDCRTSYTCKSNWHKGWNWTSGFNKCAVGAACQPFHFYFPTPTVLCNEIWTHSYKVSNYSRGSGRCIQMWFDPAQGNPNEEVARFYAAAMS
# Procedure: To assess the binding of the chimeric anti-FOLR1 mAbs to cells that are known to express FOLR1, SK-OV-3 (ATCC® HTB-77™) cells were plated at 80,000 cells per well on a 96-well non-binding U-bottom plate (Greiner Bio-One, Cat#: 650901). In some experiments, 90,000 cells per well were used. The cells were incubated in 50 μL FACS buffer (HBSS with 0.1% BSA and 0.05% sodium azide) containing mAbs at different concentrations on ice for 15 minutes. After wash, cells were incubated in 50 μL FACS buffer containing 3.5 μg/mL F(ab′)2-Goat anti-Human IgG Fc conjugated to Alexa Fluor® 488 (Invitrogen, Cat#: H10120) on ice for 15 minutes in dark and washed again. Cells were analyzed using an Attune NxT flow cytometer. MFI, mean fluorescence intensity.
# [4] = target: T1, Recombinant extracellular domain of …; assay: SPR (Biacore 8k), mAb captured on protein A chip, recombinant FOLR1 as analyte, 1:1 model
# Procedure: The interaction of the chimeric anti-FOLR1 mAbs and FOLR1 was measured by Surface Plasmon Resonance (SPR) (Biacore 8k, GE Healthcare). Briefly, an anti-FOLR1 mAb was immobilized to a protein A sensor chip (GE Healthcare, Cat#: 29-1275-56) in HBS-P buffer (0.01 M HEPES pH 7.4, 0.15 M NaCl, 0.05% v/v Surfactant P20) with an injection flow rate at […]. The recombinant FOLR1 (Novoprotein, Cat#: C784) at variant concentrations was loaded with the flow rate of 30 μL/min in HBS-P buffer. Following antigen loading, the surface was regenerated with 10 mM glycine-HCl (pH 1.5). Sensor grams were fit with a 1:1 binding model using Biacore 8k evaluation software (GE Healthcare).
# [5] = target: T1, Recombinant extracellular domain of …; assay: ELISA on plate-coated recombinant human FOLR1 extracellular domain; anti-human IgG-HRP; O.D. 450 nm
# Procedure: The Purified chimeric mAbs were tested in an ELISA assay for their ability to bind to immobilized human FOLR1. Recombinant extracellular domain of human FOLR1 (Novoprotein, Cat#: C784) in carbonate coating buffer was coated on a 96-well plate at room temperature for 1 hour. The plate is blocked by 5% BSA in TBST for 1 hour at room temperature. In each well of an individual plate, mAbs at various concentrations were incubated for 1 hour at room temperature. The plate was washed and the binding to FOLR1 was detected by anti-human IgG conjugated to horseradish peroxidase (hIgG-HRP) (ThermoFisher Scientific, Cat#: H10007) with incubation for 1 hour at room temperature. Then after washing, the ELISA was developed using One-step Detection Solution (ThermoFisher Scientific, Cat#: 34028) and measured as the absorbance at 450 nm.
# [6] = target: T2, FOLR1 on SK-OV-3 cells (ATCC HTB-77); assay: FACS on SK-OV-3 cells; MFI
# [7] = target: T1, Recombinant extracellular domain of …; assay: ELISA on immobilized FOLR1 extracellular domain; O.D. 450 nm; remark: listed apart in the source
# [8] = target: T2, FOLR1 on SK-OV-3 cells (ATCC HTB-77); assay: FACS on SK-OV-3 cells; MFI; remark: listed apart in the source
# [9] = target: T1, Recombinant extracellular domain of …; assay: ELISA on immobilized FOLR1 extracellular domain; O.D. 450 nm; remark: listed apart in the source
# [10] = target: T1, Recombinant extracellular domain of …; assay: as above; remark: listed apart in the source
# [11] = target: T2, FOLR1 on SK-OV-3 cells (ATCC HTB-77); assay: FACS on SK-OV-3 cells; MFI; remark: listed apart in the source
# [12] = target: T1, Recombinant extracellular domain of …; assay: ELISA on immobilized FOLR1 extracellular domain; O.D. 450 nm; remark: listed apart in the source
# [13] = target: T2, FOLR1 on SK-OV-3 cells (ATCC HTB-77); assay: FACS on SK-OV-3 cells; MFI; remark: listed apart in the source
# [14] = target: T1, Recombinant extracellular domain of …; assay: ELISA on immobilized FOLR1 extracellular domain; O.D. 450 nm; remark: listed apart in the source
# T1 sequence (P15328 25-233 limits assumed): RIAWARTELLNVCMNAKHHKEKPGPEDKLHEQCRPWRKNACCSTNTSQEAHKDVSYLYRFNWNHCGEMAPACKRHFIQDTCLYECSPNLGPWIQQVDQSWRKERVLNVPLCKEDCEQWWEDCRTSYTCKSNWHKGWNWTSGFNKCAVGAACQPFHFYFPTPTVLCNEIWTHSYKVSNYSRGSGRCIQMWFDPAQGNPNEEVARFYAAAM
binder,measurement,setting,value
"chimeric anti-FOLR1 mAb F17 (antibody, V domains shown, also called Chimeric mAb F17) VH: DVQLVESGGGLVQPGGSRKLSCAASGFTFSDFGMHWIRQAPERGLEWVAYMSYTPGTFHYADTVKDRFFISRDNAKNTLFLQMTSLRSDDTAMYYCARVHVGTVDYWGQGTSVTVSS VL: DVVLTQSPATLSVTPGDSVSLSCRASQNINNNLHWFQQKSHESPRLLIKYASQSISGIPSRFSGSGSGTDFTLSINNVETEDFGIYFCQQSNSWPALTFGTGTKVELK",EC50 (read off the curve),[1],200 to 300 pM
same,EC50 (read off the curve),[2],200 to 300 pM
same,EC50 (read off the curve),[3],~800 pM
same,Kd,[4],265 pM
same,EC50 (read off the curve),[5],100 to 200 pM
"F10-H1L1 (antibody, V domains shown, also called humanized F10 mAb H1L1) VH: EVQLVQSGAEVKKPGSSVKVSCKASGYAFSSSWMNWVRQAPGQGLEWIGRIYPGDGYTHYNGMFKGRASLTADKSTSTGYMELSSLRSEDTAVFFCTRHGDFPYWYFDVWGRGTLVTVSP VL: DIQMTQSPSTLSASVGDRVTITCRASENIDSYLAWYQQKPGRAPKLLVYAATNLAVGVPSRFSGSGSGTEYTLTISSLQSDDFATYYCQHHYSTPPTFGQGTKLEIK",EC50 (read off the curve),[6],~3000 pM
same,EC50 (read off the curve),[7],100 to 200 pM
"F17-H1L1 (antibody, V domains shown, also called humanized F17 mAb H1L1) VH: EVQLVETGGGLIQPGGSLRLSCAASGFTFSDFGMHWIRQAPGKGLEWVAYMSYTPGTFHYADTVKDRFTISRDNSKNTLYLQMNSLRAEDTAVYYCARVHVGTVDYWGQGTLVTVSS VL: EVVLTQSPATLSLSPGERATLSCRASQNINNNLHWFQQKPGQAPRLLIKYASQSISGIPARFSGSGSGTDFTLTISSLEPEDFAVYFCQQSNSWPALTFGQGTKVEIK",EC50 (read off the curve),[1],100 to 200 pM
"chimeric anti-FOLR1 mAb F10 (antibody, V domains shown, also called Chimeric mAb F10) VH: QVQLQQSGPELVKPGASVKISCKASGYAFSSSWMNWVRQRPGKGLEWIGRIYPGDGYTHYNGMFKGKATLTADKSSSTGYMQLSSLTSEDSAVYFCTRHGDFPYWYFDVWGTGTTVTVSS VL: DIQMTQSPASLSASVGESVTITCRASENIDSYLAWYQQKQGKSPQLLVYAATNLAVGVPSRFSGSGSGTQYTLKINSLQSEDVARYYCQHHYSTPPTFGGGTKLEIK",EC50 (read off the curve),[7],~200 pM
same,EC50 (read off the curve),[3],~900 pM
same,Kd,[4],704 pM
same,EC50 (read off the curve),[5],~200 pM
"F5-H1L2 (antibody, V domains shown, also called humanized F5 mAb H1L2) VH: EVQLLESGGGLVQPGGSLRLSCAVSGFTFSNYGMSWVRQAPGKGLEWVATISSGGSYTYYPDSVKGRFTISRDNSKNTLYLQMNSLRAEDTAVYYCSTQGSSGYVGYWGQGTLVTVSS VL: DIQMTQSPSSVSASVGDRVTITCKASQDITNFIGWYQHKPGKAPKLLISYTSILESGVPSRFSGSGSGTDYTLTISSLQPEDFATYYCLQYYNLWTFGGGTKVEIK",EC50 (read off the curve),[8],~900 pM
same,EC50 (read off the curve),[9],200 to 300 pM
"F5-H4L1 (antibody, V domains shown, also called humanized F5 mAb H4L1) VH: EVQLVESGGGLVQPGGSLRLSCAVSGFTFSNYGMSWVRQAPGKGLEWVATISSGGSYTYYPDSVKGRFTISRDNDKNTLYLQMSSLRAEDTAVYYCSTQGSSGYVGYWGQGTLVTVSS VL: DIQMTQSPSSVSASVGDRVTITCKASQDITNFIGWYQHKPGKAPKLLISYTSILESGVPSRFSGSGSGRDYTLTISSLQPEDFATYYCLQYYNLWTFGGGTKVEIK",EC50 (read off the curve),[10],~400 pM
"F5-H4L2 (antibody, V domains shown, also called humanized F5 mAb H4L2) VH: EVQLVESGGGLVQPGGSLRLSCAVSGFTFSNYGMSWVRQAPGKGLEWVATISSGGSYTYYPDSVKGRFTISRDNDKNTLYLQMSSLRAEDTAVYYCSTQGSSGYVGYWGQGTLVTVSS VL: DIQMTQSPSSVSASVGDRVTITCKASQDITNFIGWYQHKPGKAPKLLISYTSILESGVPSRFSGSGSGTDYTLTISSLQPEDFATYYCLQYYNLWTFGGGTKVEIK",EC50 (read off the curve),[10],~400 pM
"F5-H2L2 (antibody, V domains shown, also called humanized F5 mAb H2L2) VH: EVQLVESGGGLVQPGGSLRLSCAVSGFTFSNYGMSWVRQAPGKGLEWVATISSGGSYTYYPDSVKGRFTISRDNSKNTLYLQMNSLRAEDTAVYYCSTQGSSGYVGYWGQGTLVTVSS VL: DIQMTQSPSSVSASVGDRVTITCKASQDITNFIGWYQHKPGKAPKLLISYTSILESGVPSRFSGSGSGTDYTLTISSLQPEDFATYYCLQYYNLWTFGGGTKVEIK",EC50 (read off the curve),[8],~900 pM
same,EC50 (read off the curve),[9],200 to 300 pM
"F20-H2L2 (antibody, V domains shown, also called humanized F20 mAb H2L2) VH: QVQLVQSGAEVKKPGSSVKVSCKASGYTFASYYLYWVRQAPGQGLEWIGEINPRSGGTNFNEKFKSRATVTVDASTSTAYMELSSLRSEDTAVYYCSRSGRLRGFYTMDYWGQGTLVTVSS VL: DIVMTQSPDSLAVSLGERATINCKAGENVGSYVSWYQQKPGQSPKLLIYGASNRYTGVPDRFSGSGSATDFTLTISSLQAEDVAVYYCGQTYRFLTFGQGTKVEIK",binding result,[11],binds
same,binding result,[12],binds
"F20-H3L3 (antibody, V domains shown, also called humanized F20 mAb H3L3) VH: QVQLVQSGAEVKKPGSSVKVSCKASGYTFASYYLYWVRQAPGQGLEWIGEINPRSGGTNFNEKFKSKATVTVDKSTNTAYMELSSLRSEDTAVYYCSRSGRLRGFYTMDYWGQGTLVTVSS VL: DIQMTQSPSTLSASVGDRVTITCKAGENVGSYVSWYQQKPGKAPKLLIYGASNRYTGVPARFSGSGSATEFTLTISSLQPDDFATYYCGQTYRFLTFGQGTKVEVK",EC50 (read off the curve),[13],~1000 pM
same,EC50 (read off the curve),[14],200 to 300 pM
"F20-H2L1 (antibody, V domains shown, also called humanized F20 mAb H2L1) VH: QVQLVQSGAEVKKPGSSVKVSCKASGYTFASYYLYWVRQAPGQGLEWIGEINPRSGGTNFNEKFKSRATVTVDASTSTAYMELSSLRSEDTAVYYCSRSGRLRGFYTMDYWGQGTLVTVSS VL: DIVMTQSPDSLAVSLGERATINCKAGENVGSYVSWYQQKPGQPPKLLIYGASNRYTGVPDRFSGSGSATDFTLTISSLQAEDVAVYYCGQTYRFLTFGQGTKVEIK",binding result,[11],binds
same,binding result,[12],binds
